Measured values reported in patent US20240409645A1 (DUALYX, published 2024).
Positions count from the first letter of the chain named. Like-named read-outs stand apart in the source and are kept apart here. Blank lines part the entries; values can stand above or below the binder they belong to.

Experiments:
[1] = molecular target: T1, human IL-2 receptor (IL-2Rα/IL-2Rβ/γc) (human, UniProt P01589 22-272; P14784 27-551; P31785 23-369); test: cell-based or functional assay
T1 sequence 1: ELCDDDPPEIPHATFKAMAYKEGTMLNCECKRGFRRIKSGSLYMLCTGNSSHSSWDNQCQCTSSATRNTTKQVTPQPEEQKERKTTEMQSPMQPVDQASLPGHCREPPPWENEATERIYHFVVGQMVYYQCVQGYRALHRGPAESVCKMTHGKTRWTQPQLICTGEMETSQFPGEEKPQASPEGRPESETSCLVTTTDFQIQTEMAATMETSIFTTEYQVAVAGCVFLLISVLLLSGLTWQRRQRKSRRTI
T1 sequence 2: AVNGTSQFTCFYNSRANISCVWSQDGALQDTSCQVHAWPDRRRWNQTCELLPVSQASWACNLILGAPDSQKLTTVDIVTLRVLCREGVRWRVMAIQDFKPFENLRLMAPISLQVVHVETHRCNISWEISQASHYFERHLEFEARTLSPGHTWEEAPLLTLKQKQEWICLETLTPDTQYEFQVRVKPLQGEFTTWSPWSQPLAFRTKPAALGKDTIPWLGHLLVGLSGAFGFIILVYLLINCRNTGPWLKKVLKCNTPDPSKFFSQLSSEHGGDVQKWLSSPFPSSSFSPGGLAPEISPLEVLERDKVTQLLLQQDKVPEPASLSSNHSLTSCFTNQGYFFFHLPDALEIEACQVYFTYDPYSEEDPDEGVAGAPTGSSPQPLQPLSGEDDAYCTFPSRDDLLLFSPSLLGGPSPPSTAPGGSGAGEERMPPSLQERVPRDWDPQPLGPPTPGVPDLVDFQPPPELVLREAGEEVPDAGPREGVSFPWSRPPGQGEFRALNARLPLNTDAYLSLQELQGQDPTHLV
T1 sequence 3: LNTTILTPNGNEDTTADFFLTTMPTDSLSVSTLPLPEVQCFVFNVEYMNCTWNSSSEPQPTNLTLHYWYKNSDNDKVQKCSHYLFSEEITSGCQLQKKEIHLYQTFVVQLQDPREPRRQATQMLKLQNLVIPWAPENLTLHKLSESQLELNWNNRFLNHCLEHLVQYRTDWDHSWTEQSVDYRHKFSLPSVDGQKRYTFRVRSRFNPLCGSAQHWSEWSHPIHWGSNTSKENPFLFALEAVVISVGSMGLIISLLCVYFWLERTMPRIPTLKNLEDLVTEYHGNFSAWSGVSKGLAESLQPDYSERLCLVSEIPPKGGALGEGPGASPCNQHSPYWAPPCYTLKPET

[2] = molecular target: T1, human IL-2 receptor (IL-2Rα/IL-2Rβ/γc); test: cell-based or functional assay; remark: listed apart in the source
human IL-2Rβ [3] = molecular target: T2, human IL-2Rβ (human, UniProt P14784 27-240, limits assumed); test: SPR, P.E. off-rate
T2 construct: recombinant protein, coated or immobilised; also called hu IL-2R; IL-2R beta
T2 sequence: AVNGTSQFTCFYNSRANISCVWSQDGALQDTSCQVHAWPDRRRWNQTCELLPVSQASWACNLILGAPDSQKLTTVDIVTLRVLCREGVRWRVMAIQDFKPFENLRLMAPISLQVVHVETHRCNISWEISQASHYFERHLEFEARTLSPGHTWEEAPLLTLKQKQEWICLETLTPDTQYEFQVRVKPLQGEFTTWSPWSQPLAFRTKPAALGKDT
Description: SPR was performed to determine dissociation rates using Biacore 3000 instrument (GE Healthcare). Briefly, human and mouse IL-2R proteins were immobilized on carboxylmethyl dextran sensor chip (CM5) at approximately 2500 RUs using amine coupling in acetate buffer (GE Healthcare). The VHH-containing P.E. were loaded with a flow rate of 30 uL/min and the off-rates were measured over a 120s period.

human IL-2Rβ [4] = molecular target: T2, human IL-2Rβ; test: P.E. ELISA, coated protein
Description: In a binding ELISA, human or mouse IL-2Rα, IL-2Rβ and IL-2Rγ proteins were coated directly on maxisorp microtiter plates overnight at 4° C. Free binding sites were blocked using 4% Marvel in PBS for 1 hour. Next, 1:5 dilution of P.E. in 1% Marvel/PBS were added to wells and incubated for 1 hour. […] Binding specificity was determined based on O.D. at 450 nm values compared to negative controls.

EC50 (nM) pSTAT5, NK, human PBMCs [1]: 2.59 nM
EC50 (nM) pSTAT5, Treg, human PBMCs [1]: 0.0118 nM
Fold Max signal (% pSTAT5+) Treg/NK [1]: 5 fold
Max signal (% pSTAT5+), NK [1]: 20 % pSTAT5+
Max signal (% pSTAT5+), Treg [1]: 95 % pSTAT5+
fold EC50 NK/Treg [1]: 220 fold
EC50 (nM) pSTAT5, NK, human PBMCs [2]: 1.14 nM
EC50 (nM) pSTAT5, Treg, human PBMCs [2]: 0.00195 nM
Fold Max signal (% pSTAT5+) Treg/NK [2]: 8 fold
Max signal (% pSTAT5+), NK [2]: 8.26 % pSTAT5+
Max signal (% pSTAT5+), Treg [2]: 64.1 % pSTAT5+
fold EC50 NK/Treg [2]: 583 fold
B1: TsVHH-48 (other)
chain 1: QVQLVESGGGLVQPGGSLRLSCATSGFTFRNNFMSWVRQAPGKGLEWVSTISYGGESTTYAESVKGRFTISRDNAKNTLYLQMNNLKPEDTAVYYCAKATSYDSIRSGSRGQGTQVTVSSDKTHTCPPCPAPEAAGGPSVFLFPPKPKDTLMISRTPEVTCVVVDVSHEDPEVKFNWYVDGVEVHNAKTKPREEQYNSTYRVVSVLTVLHQDWLNGKEYKCKVSNKALGAPIEKTISKAKGQPREPQVYTLPPSRDELTKNQVSLTCLVKGFYPSDIAVEWESNGQPENNYKTTPPVLDSDGSFFLYSRLTVDKSRWQQGNVFSCSVMHEALHNHYTQKSLSLSPGK
chain 2: QVQLVESGGGLVQAGGSLTLSCAAPGRTFGTDVVGWFRQAPGKEREFVASISRSGDGIYYDDSVKGRFTISRNNAWNTVNLQMNSLKVEDTAVYYCAAGDGWSTYDYWGQGTQVTVSSGGGGSGGGGSGGGGSGSEVQLVESGGGLVQTGGSLRLSCAASGGTFSRDAMAWFRQVPGKEREFVALISWSGATTNYADSVKGRFAISRDNGKNTVYLQMNRLKPADTAIYYCAADRRPMGSRSYFEPTEYDDWGQGTQVTVSSGGGGSGGGGSGGGGSTVSSDKTHTCPPCPAPEAAGGPSVFLFPPKPKDTLMISRTPEVTCVVVDVSHEDPEVKFNWYVDGVEVHNAKTKPREEQYNSTYRVVSVLTVLHQDWLNGKEYKCKVSNKALGAPIEKTISKAKGQPREPQVYTLPPSRDELTKNQVSLTCLVKGFYPSDIAVEWESNGQPENNYKTTPPVLDSDGSFLLYSKLTVDKSRWQQGNVFSCSVMHEALHNHYTQKSLSLSPGK

EC50 (nM) pSTAT5, NK, human PBMCs [1]: 0.645 nM
EC50 (nM) pSTAT5, Treg, human PBMCs [1]: 0.00334 nM
Fold Max signal (% pSTAT5+) Treg/NK [1]: 7 fold
Max signal (% pSTAT5+), NK [1]: 8 % pSTAT5+
Max signal (% pSTAT5+), Treg [1]: 56 % pSTAT5+
fold EC50 NK/Treg [1]: 193 fold
EC50 (nM) pSTAT5, NK, human PBMCs [2]: 0.769 nM
EC50 (nM) pSTAT5, Treg, human PBMCs [2]: 0.00215 nM
Fold Max signal (% pSTAT5+) Treg/NK [2]: 8 fold
Max signal (% pSTAT5+), NK [2]: 2.49 % pSTAT5+
Max signal (% pSTAT5+), Treg [2]: 19.8 % pSTAT5+
fold EC50 NK/Treg [2]: 358 fold
B2: DC00060 (other)
chain 1: QVQLVESGGGLVQPGGSLRLSCATSGFTFRNNFMSWVRQAPGKGLEWVSTISYGGESTTYAESVKGRFTISRDNAKNTLYLQMNNLKPEDTAVYYCAKATSYDSIRSGSRGQGTQVTVSSGGGGSGGGGSGGGGSEVQLVESGGGLVQTGGSLRLSCAASGGTFSRDAMAWFRQVPGKEREFVALISWSGATTNYADSVKGRFAISRDNGKNTVYLQMNRLKPADTAIYYCAADRRPMGSRSYFEPTEYDDWGQGTQVTVSSGGGGSGGGGSGGGGSDKTHTCPPCPAPEAAGGPSVFLFPPKPKDTLMISRTPEVTCVVVDVSHEDPEVKFNWYVDGVEVHNAKTKPREEQYNSTYRVVSVLTVLHQDWLNGKEYKCKVSNKALGAPIEKTISKAKGQPREPQVYTLPPSRDELTKNQVSLTCLVKGFYPSDIAVEWESNGQPENNYKTTPPVLDSDGSFLLYSKLTVDKSRWQQGNVFSCSVMHEALHNHYTQKSLSLSPGK
chain 2: QVQLVESGGGLVQPGGSLRLSCATSGFTFRNNFMSWVRQAPGKGLEWVSTISYGGESTTYAESVKGRFTISRDNAKNTLYLQMNNLKPEDTAVYYCAKATSYDSIRSGSRGQGTQVTVSSGGGGSGGGGSGGGGSQVQLVESGGGLVQAGGSLTLSCAAPGRTFGTDVVGWFRQAPGKEREFVASISRSGDGIYYDDSVKGRFTISRNNAWNTVNLQMNSLKVEDTAVYYCAAGDGWSTYDYWGQGTQVTVSSGGGGSGGGGSGGGGSDKTHTCPPCPAPEAAGGPSVFLFPPKPKDTLMISRTPEVTCVVVDVSHEDPEVKFNWYVDGVEVHNAKTKPREEQYNSTYRVVSVLTVLHQDWLNGKEYKCKVSNKALGAPIEKTISKAKGQPREPQVYTLPPSRDELTKNQVSLTCLVKGFYPSDIAVEWESNGQPENNYKTTPPVLDSDGSFFLYSRLTVDKSRWQQGNVFSCSVMHEALHNHYTQKSLSLSPGK

koff (human IL-2Rβ [3]): 0.000828 s⁻¹
P.E. binding ELISA OD (human IL-2Rβ [4]): 0.212 OD450 nm
B3: FJ1427_P035MP02F03 (VHH)
VHH: EVQLVESGGGLVQAGGSLRLSCAASGGTFSSYAMGWFRQAPGKEREFVAATTRGGGRTMYAVSTEGRFTCSRDNAKNTVYLLMNSLKPEDTAVYYCAAMTSYYSGTYYPDSSDFDIWGQGTQVTVSS
notes: soluble VHH in periplasmic extract; also called clone nr

koff (human IL-2Rβ [3]): 0.00051 s⁻¹
P.E. binding ELISA OD (human IL-2Rβ [4]): 0.376 OD450 nm
B4: FJ1427 P035MP02H04 (VHH)
VHH: B3 VHH with E1Q, G16D, A24T, G27L, M34L, E44K, A75D, E89K
notes: as for B3
